Experimental findings from patent US20200024322A1 (Eli Lilly, published 2020) are described below.

Numbered stars: 1 amine (or outer) side, 2 acyl side, 3 side chain; on linkers, the order of the positions; unused ones are H or OH. Square brackets hold non-standard residues; d marks the D form. Side chains are listed from the residue outwards. Ends that are not written are not given here. * marks the point of attachment. C20 diacid = O=C(O)CCCCCCCCCCCCCCCCCCC(=O)*; γGlu = O=C(O)[C@H](CCC(=O)[*:2])N[*:1]; AEEA = NCCOCCOCC(=O)O; Aib = CC(C)(N)C(=O)O

T1: human GIP receptor (human, UniProt P48546 22-466)
T1 construct: whole, on cells; Used as crude membranes of stably transfected CHO cells; also called hGIPR
T1 sequence (looked up): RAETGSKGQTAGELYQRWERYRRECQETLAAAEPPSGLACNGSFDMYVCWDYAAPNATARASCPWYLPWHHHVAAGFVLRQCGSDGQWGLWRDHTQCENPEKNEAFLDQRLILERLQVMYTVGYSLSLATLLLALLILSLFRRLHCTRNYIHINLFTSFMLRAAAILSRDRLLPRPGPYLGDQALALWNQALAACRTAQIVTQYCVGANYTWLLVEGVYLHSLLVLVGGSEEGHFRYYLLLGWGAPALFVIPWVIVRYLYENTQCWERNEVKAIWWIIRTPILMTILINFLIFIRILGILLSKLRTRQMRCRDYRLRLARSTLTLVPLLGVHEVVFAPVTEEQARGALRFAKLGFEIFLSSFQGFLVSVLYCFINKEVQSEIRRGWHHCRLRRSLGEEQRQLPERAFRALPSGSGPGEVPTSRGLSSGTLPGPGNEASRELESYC

B1: Example 24 (peptide)
peptide: Y[Aib]EGTFTSDYK([AEEA-AEEA-γGlu-C20 diacid])ILLDKIAQ[Aib]AFIEYLIEGGPSSGAPPPS-NH2
modifications: N-terminus assumed
SMILES: CC[C@H](C)[C@H](NC(=O)[C@H](CCCCN)NC(=O)[C@H](CC(=O)O)NC(=O)[C@H](CC(C)C)NC(=O)[C@H](CC(C)C)NC(=O)[C@@H](NC(=O)[C@H](CCCCNC(=O)COCCOCCNC(=O)COCCOCCNC(=O)CC[C@H](NC(=O)CCCCCCCCCCCCCCCCCCC(=O)O)C(=O)O)NC(=O)[C@H](Cc1ccc(O)cc1)NC(=O)[C@H](CC(=O)O)NC(=O)[C@H](CO)NC(=O)[C@@H](NC(=O)[C@H](Cc1ccccc1)NC(=O)[C@@H](NC(=O)CNC(=O)[C@H](CCC(=O)O)NC(=O)C(C)(C)NC(=O)[C@@H](N)Cc1ccc(O)cc1)[C@@H](C)O)[C@@H](C)O)[C@@H](C)CC)C(=O)N[C@@H](C)C(=O)N[C@@H](CCC(N)=O)C(=O)NC(C)(C)C(=O)N[C@@H](C)C(=O)N[C@@H](Cc1ccccc1)C(=O)N[C@H](C(=O)N[C@@H](CCC(=O)O)C(=O)N[C@@H](Cc1ccc(O)cc1)C(=O)N[C@@H](CC(C)C)C(=O)N[C@H](C(=O)N[C@@H](CCC(=O)O)C(=O)NCC(=O)NCC(=O)N1CCC[C@H]1C(=O)N[C@@H](CO)C(=O)N[C@@H](CO)C(=O)NCC(=O)N[C@@H](C)C(=O)N1CCC[C@H]1C(=O)N1CCC[C@H]1C(=O)N1CCC[C@H]1C(=O)N[C@@H](CO)C(N)=O)[C@@H](C)CC)[C@@H](C)CC
B2: Example 30 (peptide)
peptide: Y[Aib]EGTFTSDYSILLDKIK([AEEA-AEEA-γGlu-C20 diacid])Q[Aib]AFIEYLIEGGPSSGAPPPS-NH2
modifications: N-terminus assumed
SMILES: CC[C@H](C)[C@H](NC(=O)[C@H](CC(C)C)NC(=O)[C@H](Cc1ccc(O)cc1)NC(=O)[C@H](CCC(=O)O)NC(=O)[C@@H](NC(=O)[C@H](Cc1ccccc1)NC(=O)[C@H](C)NC(=O)C(C)(C)NC(=O)[C@H](CCC(N)=O)NC(=O)[C@H](CCCCNC(=O)COCCOCCNC(=O)COCCOCCNC(=O)CC[C@H](NC(=O)CCCCCCCCCCCCCCCCCCC(=O)O)C(=O)O)NC(=O)[C@@H](NC(=O)[C@H](CCCCN)NC(=O)[C@H](CC(=O)O)NC(=O)[C@H](CC(C)C)NC(=O)[C@H](CC(C)C)NC(=O)[C@@H](NC(=O)[C@H](CO)NC(=O)[C@H](Cc1ccc(O)cc1)NC(=O)[C@H](CC(=O)O)NC(=O)[C@H](CO)NC(=O)[C@@H](NC(=O)[C@H](Cc1ccccc1)NC(=O)[C@@H](NC(=O)CNC(=O)[C@H](CCC(=O)O)NC(=O)C(C)(C)NC(=O)[C@@H](N)Cc1ccc(O)cc1)[C@@H](C)O)[C@@H](C)O)[C@@H](C)CC)[C@@H](C)CC)[C@@H](C)CC)C(=O)N[C@@H](CCC(=O)O)C(=O)NCC(=O)NCC(=O)N1CCC[C@H]1C(=O)N[C@@H](CO)C(=O)N[C@@H](CO)C(=O)NCC(=O)N[C@@H](C)C(=O)N1CCC[C@H]1C(=O)N1CCC[C@H]1C(=O)N1CCC[C@H]1C(=O)N[C@@H](CO)C(N)=O
B3: Example 31 (peptide)
peptide: Y[Aib]EGTFTSDYSILLDKIAK([AEEA-AEEA-γGlu-C20 diacid])[Aib]AFIEYLIEGGPSSGAPPPS-NH2
modifications: N-terminus assumed
SMILES: CC[C@H](C)[C@H](NC(=O)[C@H](CCCCN)NC(=O)[C@H](CC(=O)O)NC(=O)[C@H](CC(C)C)NC(=O)[C@H](CC(C)C)NC(=O)[C@@H](NC(=O)[C@H](CO)NC(=O)[C@H](Cc1ccc(O)cc1)NC(=O)[C@H](CC(=O)O)NC(=O)[C@H](CO)NC(=O)[C@@H](NC(=O)[C@H](Cc1ccccc1)NC(=O)[C@@H](NC(=O)CNC(=O)[C@H](CCC(=O)O)NC(=O)C(C)(C)NC(=O)[C@@H](N)Cc1ccc(O)cc1)[C@@H](C)O)[C@@H](C)O)[C@@H](C)CC)C(=O)N[C@@H](C)C(=O)N[C@@H](CCCCNC(=O)COCCOCCNC(=O)COCCOCCNC(=O)CC[C@H](NC(=O)CCCCCCCCCCCCCCCCCCC(=O)O)C(=O)O)C(=O)NC(C)(C)C(=O)N[C@@H](C)C(=O)N[C@@H](Cc1ccccc1)C(=O)N[C@H](C(=O)N[C@@H](CCC(=O)O)C(=O)N[C@@H](Cc1ccc(O)cc1)C(=O)N[C@@H](CC(C)C)C(=O)N[C@H](C(=O)N[C@@H](CCC(=O)O)C(=O)NCC(=O)NCC(=O)N1CCC[C@H]1C(=O)N[C@@H](CO)C(=O)N[C@@H](CO)C(=O)NCC(=O)N[C@@H](C)C(=O)N1CCC[C@H]1C(=O)N1CCC[C@H]1C(=O)N1CCC[C@H]1C(=O)N[C@@H](CO)C(N)=O)[C@@H](C)CC)[C@@H](C)CC
B4: Example 25 (peptide)
peptide: Y[Aib]EGTFTSDYSK([AEEA-AEEA-γGlu-C20 diacid])LLDKIAQ[Aib]AFIEYLIEGGPSSGAPPPS-NH2
modifications: N-terminus assumed
SMILES: CC[C@H](C)[C@H](NC(=O)[C@H](CCCCN)NC(=O)[C@H](CC(=O)O)NC(=O)[C@H](CC(C)C)NC(=O)[C@H](CC(C)C)NC(=O)[C@H](CCCCNC(=O)COCCOCCNC(=O)COCCOCCNC(=O)CC[C@H](NC(=O)CCCCCCCCCCCCCCCCCCC(=O)O)C(=O)O)NC(=O)[C@H](CO)NC(=O)[C@H](Cc1ccc(O)cc1)NC(=O)[C@H](CC(=O)O)NC(=O)[C@H](CO)NC(=O)[C@@H](NC(=O)[C@H](Cc1ccccc1)NC(=O)[C@@H](NC(=O)CNC(=O)[C@H](CCC(=O)O)NC(=O)C(C)(C)NC(=O)[C@@H](N)Cc1ccc(O)cc1)[C@@H](C)O)[C@@H](C)O)C(=O)N[C@@H](C)C(=O)N[C@@H](CCC(N)=O)C(=O)NC(C)(C)C(=O)N[C@@H](C)C(=O)N[C@@H](Cc1ccccc1)C(=O)N[C@H](C(=O)N[C@@H](CCC(=O)O)C(=O)N[C@@H](Cc1ccc(O)cc1)C(=O)N[C@@H](CC(C)C)C(=O)N[C@H](C(=O)N[C@@H](CCC(=O)O)C(=O)NCC(=O)NCC(=O)N1CCC[C@H]1C(=O)N[C@@H](CO)C(=O)N[C@@H](CO)C(=O)NCC(=O)N[C@@H](C)C(=O)N1CCC[C@H]1C(=O)N1CCC[C@H]1C(=O)N1CCC[C@H]1C(=O)N[C@@H](CO)C(N)=O)[C@@H](C)CC)[C@@H](C)CC
B5: Example 27 (peptide)
peptide: Y[Aib]EGTFTSDYSILK([AEEA-AEEA-γGlu-C20 diacid])DKIAQ[Aib]AFIEYLIEGGPSSGAPPPS-NH2
modifications: N-terminus assumed
SMILES: CC[C@H](C)[C@H](NC(=O)[C@H](CCCCN)NC(=O)[C@H](CC(=O)O)NC(=O)[C@H](CCCCNC(=O)COCCOCCNC(=O)COCCOCCNC(=O)CC[C@H](NC(=O)CCCCCCCCCCCCCCCCCCC(=O)O)C(=O)O)NC(=O)[C@H](CC(C)C)NC(=O)[C@@H](NC(=O)[C@H](CO)NC(=O)[C@H](Cc1ccc(O)cc1)NC(=O)[C@H](CC(=O)O)NC(=O)[C@H](CO)NC(=O)[C@@H](NC(=O)[C@H](Cc1ccccc1)NC(=O)[C@@H](NC(=O)CNC(=O)[C@H](CCC(=O)O)NC(=O)C(C)(C)NC(=O)[C@@H](N)Cc1ccc(O)cc1)[C@@H](C)O)[C@@H](C)O)[C@@H](C)CC)C(=O)N[C@@H](C)C(=O)N[C@@H](CCC(N)=O)C(=O)NC(C)(C)C(=O)N[C@@H](C)C(=O)N[C@@H](Cc1ccccc1)C(=O)N[C@H](C(=O)N[C@@H](CCC(=O)O)C(=O)N[C@@H](Cc1ccc(O)cc1)C(=O)N[C@@H](CC(C)C)C(=O)N[C@H](C(=O)N[C@@H](CCC(=O)O)C(=O)NCC(=O)NCC(=O)N1CCC[C@H]1C(=O)N[C@@H](CO)C(=O)N[C@@H](CO)C(=O)NCC(=O)N[C@@H](C)C(=O)N1CCC[C@H]1C(=O)N1CCC[C@H]1C(=O)N1CCC[C@H]1C(=O)N[C@@H](CO)C(N)=O)[C@@H](C)CC)[C@@H](C)CC

T2 sequence (P47871 26-477): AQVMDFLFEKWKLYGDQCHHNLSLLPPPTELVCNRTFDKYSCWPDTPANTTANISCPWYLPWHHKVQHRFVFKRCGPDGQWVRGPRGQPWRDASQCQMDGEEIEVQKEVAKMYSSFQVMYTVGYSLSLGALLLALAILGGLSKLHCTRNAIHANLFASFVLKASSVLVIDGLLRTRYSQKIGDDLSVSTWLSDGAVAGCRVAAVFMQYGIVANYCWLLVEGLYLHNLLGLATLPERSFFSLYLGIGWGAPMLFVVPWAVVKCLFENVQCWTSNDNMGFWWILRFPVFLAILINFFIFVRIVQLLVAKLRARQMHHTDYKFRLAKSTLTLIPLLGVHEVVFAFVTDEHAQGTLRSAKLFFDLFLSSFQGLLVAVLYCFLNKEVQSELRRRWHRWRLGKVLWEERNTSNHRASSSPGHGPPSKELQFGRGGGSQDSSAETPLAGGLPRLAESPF

The first experiment has as its target T2, human glucagon receptor (human, UniProt P47871 26-477).
T2 construct: whole, on cells; Used as crude membranes of stably transfected HEK293 cells; also called hGcgR; hGLcgR
Put plainly: SPA, [125I]-Gcg displacement, hGcgR membranes.
As for B1, the inhibition constant Ki (as a rule, a dissociation constant, usually derived from enzyme kinetics or from competition with a known ligand) turned out to be 49.8 nM.

B2 showed a Ki of 123 nM. This Ki lies about 2.5-fold higher than the previous one.

The molecule B3 came in with a Ki of 290 nM. Compared with the last molecule, the Ki is about 2.4-fold higher.

For B4, affinity was put at a Ki of 81.1 nM. This Ki lies about 3.6-fold lower than the previous one.

Consider B5, for which the affinity corresponds to a Ki of 315 nM.

A further experiment deals with T3, human GLP-1 receptor (human, UniProt P43220 24-463).
T3 construct: whole, on cells; Used as crude membranes of stably transfected HEK293 cells; also called hGLP1R; hGLP-1R
Put plainly: SPA, [125I]-GLP-1 displacement, hGLP-1R membranes.
With B1, the affinity corresponds to a Ki of 5.04 nM.

In turn, B2 came in with a Ki of 6.2 nM. The Ki values of the last two molecules are within 1.5-fold of each other.

In the case of B3, the Ki is 6.58 nM.

B4 gave a Ki of 4.8 nM.

With B5, the inhibition constant (Ki) is 3.68 nM.

For the next experiment, the target named is T1, human GIP receptor. Put plainly: SPA, [125I]-GIP displacement, hGIPR membranes.
The molecule B1 registered a Ki of 0.232 nM.

B2 had a Ki of 0.151 nM.

In turn, B3 had a Ki of 0.0275 nM. This Ki is about 5.5-fold lower than that of the molecule before.

The molecule B4 yielded a Ki of 0.179 nM.

B5: the affinity corresponds to a Ki of 0.103 nM.
